Measured values as given in US20110201118.

How the values were obtained:
[1] = tested on: TAL/GFP-L dTALEN (synthetic construct); test: cell_activity; details: paired with TAL/GFP-R; 5/10 clones at 0.5 ug/well in HEK293T; 0/4 without TALEN
[2] = tested on: TAL/GFP-R dTALEN (synthetic construct); test: cell_activity; details: paired with TAL/GFP-L; 5/10 clones at 0.5 ug/well in HEK293T; 0/4 without TALEN

Row | Substance | activity (% clones with deletions) [1] | activity (% clones with deletions) [2]
1 | eGFP target, TAL/GFP-L half-site | 50 | 
2 | eGFP target, TAL/GFP-R half-site |  | 50
